Experimental findings from PMC2666730, “HMGB1/2 can target DNA for illegitimate cleavage by the RAG1/2 complex” are described below.

Data set [1] concerns the target T1, HMGB1 Tailless (UniProt P09429 1-163). Kind of data set: EMSA. To be noted: EMSA as in ref 30; binding buffer, salt, pH and temperature not given in the material; scale: fold more protein needed than for bps6197. On the technique in general: Mobility shift assays separate free from complexed probe on a gel.
Data set [2] deals with T2, HMGB1 full-length (UniProt P09429 1-215). In words: EMSA. To be noted: EMSA as in ref 30; binding buffer, salt, pH and temperature not given in the material; scale: fold more protein needed than for bps6197.
T2 sequence (P09429 whole entry): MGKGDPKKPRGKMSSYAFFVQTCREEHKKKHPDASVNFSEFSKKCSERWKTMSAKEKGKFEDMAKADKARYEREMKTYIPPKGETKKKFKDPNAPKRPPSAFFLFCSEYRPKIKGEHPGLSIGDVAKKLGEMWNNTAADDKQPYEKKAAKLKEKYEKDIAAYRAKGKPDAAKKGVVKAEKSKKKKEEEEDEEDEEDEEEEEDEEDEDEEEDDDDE
Data set [3] has as its target T2, HMGB1 full-length. In words: EMSA; 0-320 ng HMGB1; EMSA as in ref 30; binding buffer, salt, pH and temperature not given in the material. The settings on record: protein: recombinant; tags: N-terminal His6; label: 5' radiolabel, top strand; blunt.
Data set [4] addresses cMR1 (core RAG1, MBP fusion);cMR2 (core RAG2, MBP fusion);HMGB1 full-length (;;, UniProt P15919;P21784;P09429 384-1040;1-387;1-215, ||). Kind of data set: EMSA; with HMGB1; similar to 23-RSS; EMSA as in ref 30; binding buffer, salt, pH and temperature not given in the material. To be noted: protein: recombinant;recombinant;recombinant; tags: N-terminal MBP;N-terminal MBP;N-terminal His6; chain copies: 2;1;1; label: 5' radiolabel, top strand; blunt.

For data set [5], the target named is T1, HMGB1 Tailless. In words: EMSA; 0-140 ng tailless HMGB1; EMSA as in ref 30; binding buffer, salt, pH and temperature not given in the material. To be noted: protein: recombinant; tags: N-terminal His6; label: 5' radiolabel, top strand; blunt.
For data set [6], the target named is T3, cMR1 (core RAG1, MBP fusion);cMR2 (core RAG2, MBP fusion) (;, UniProt P15919;P21784 384-1040;1-387, |).
T3 sequence 1: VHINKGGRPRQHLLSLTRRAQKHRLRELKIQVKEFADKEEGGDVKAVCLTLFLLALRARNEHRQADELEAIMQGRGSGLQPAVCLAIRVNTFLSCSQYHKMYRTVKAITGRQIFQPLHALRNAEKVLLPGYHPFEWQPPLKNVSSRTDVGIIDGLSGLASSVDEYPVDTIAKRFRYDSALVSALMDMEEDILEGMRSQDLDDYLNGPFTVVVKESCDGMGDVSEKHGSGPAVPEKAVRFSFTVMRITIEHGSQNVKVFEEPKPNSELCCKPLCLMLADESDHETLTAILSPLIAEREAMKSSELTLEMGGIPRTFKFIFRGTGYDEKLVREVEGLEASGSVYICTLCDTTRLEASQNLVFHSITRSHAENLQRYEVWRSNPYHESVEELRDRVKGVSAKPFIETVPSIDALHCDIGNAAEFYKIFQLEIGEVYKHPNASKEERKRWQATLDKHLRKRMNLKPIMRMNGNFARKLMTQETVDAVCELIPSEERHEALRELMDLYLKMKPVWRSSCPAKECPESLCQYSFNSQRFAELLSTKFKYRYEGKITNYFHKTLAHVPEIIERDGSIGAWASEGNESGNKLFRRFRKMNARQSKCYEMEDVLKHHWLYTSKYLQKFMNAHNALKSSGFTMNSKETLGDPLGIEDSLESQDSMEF
T3 sequence 2: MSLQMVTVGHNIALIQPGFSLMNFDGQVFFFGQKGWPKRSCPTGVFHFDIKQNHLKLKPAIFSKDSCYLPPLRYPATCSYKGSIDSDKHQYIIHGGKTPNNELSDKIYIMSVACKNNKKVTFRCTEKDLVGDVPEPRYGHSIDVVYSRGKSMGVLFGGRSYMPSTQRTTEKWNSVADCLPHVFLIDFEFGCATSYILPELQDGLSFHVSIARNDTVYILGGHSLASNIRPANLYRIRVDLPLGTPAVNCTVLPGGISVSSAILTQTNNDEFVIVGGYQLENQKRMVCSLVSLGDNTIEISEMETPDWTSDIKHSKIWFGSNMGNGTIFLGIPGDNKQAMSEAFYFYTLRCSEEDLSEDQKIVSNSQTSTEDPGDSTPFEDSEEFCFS
In words: EMSA; without HMGB1; similar to 23-RSS, slightly more susceptible to cold 23-RSS; EMSA as in ref 30; binding buffer, salt, pH and temperature not given in the material. The settings on record: protein: recombinant;recombinant; tags: N-terminal MBP;N-terminal MBP; chain copies: 2;1; label: 5' radiolabel, top strand; blunt.

T1 sequence (P09429 1-163): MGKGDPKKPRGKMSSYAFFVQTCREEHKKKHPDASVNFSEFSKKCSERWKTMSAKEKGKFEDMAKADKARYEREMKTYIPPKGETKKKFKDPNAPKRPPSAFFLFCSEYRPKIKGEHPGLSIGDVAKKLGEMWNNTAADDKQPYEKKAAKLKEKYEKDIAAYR
Chain of cMR1 (core RAG1, MBP fusion);cMR2 (core RAG2, MBP fusion);HMGB1 full-length (P09429 whole entry, the tested form may be a part, one chain of several): as the sequence (P09429 whole entry) above

23-RSS (consensus): the binding signal with HMGB1 Tailless [1] and in the data set with HMGB1 full-length [2] was 1.5 throughout.

B1: bps6197 (dsDNA)
DNA 1: TCCCCGAAAAGTGCCACCTGACGTCTAAGAAACCATTATTATCATGACATTAACCTATAAA
DNA 2: TTTATAGGTTAATGTCATGATAATAATGGTTTCTTAGACGTCAGGTGGCACTTTTCGGGGA
On to B1, for which the binding signal with HMGB1 full-length [3] and with HMGB1 Tailless [5] was ~1.5 fold less protein needed than for 23-RSS each time. The binding result in data set [4] and in data set [6] was “binds” throughout.
